In publication PMC8200818, “SPECT/CT Imaging, Biodistribution and Radiation Dosimetry of a ^177Lu-DOTA-Integrin αvβ6 Cystine Knot Peptide in a Pancreatic Cancer Xenograft Model” (Frontiers in Oncology, 2021):

Assay: in vivo
Settings: female, mouse, iv, 1 MBq, total radioactivity; for tissue uptake at 24 h: 24 h p.i.; for tissue uptake at 24 h / tissue uptake at 48 h / tissue uptake at 72 h / tissue uptake at 192 h: nude mice, Capan-2 xenografts, mean ± SD (4 ≤ n ≤ 5); for tissue uptake at 48 h: 48 h p.i.; for tissue uptake at 72 h: 72 h p.i.; for tissue uptake at 192 h: 192 h p.i.
Excerpt: For in vivo experiments, at least 8-week-old female athymic NMRI-Foxn1^nu/Foxn1^nu mice (Janvier Labs, Saint-Berthevin, France) were used. Animal care followed institutional guidelines and all experiments were approved by local animal research authorities. For the generation of tumor xenografts, 5 x 10^6 cells of Capan-2 cells were inoculated subcutaneously into the left and right shoulder (1:1 phosphate-buffered saline [PBS]/Matrigel Basement Membrane Matrix High Concentration, Corning, Corning, USA). Tumors were allowed to grow for two to four weeks (tumor volume > 100 mm^3) after cell inoculation.
Radiolabeling of the DOTA-integrin αvβ6 knottin was carried out manually using [^177Lu]LuCl3 and a reagent kit from ITG Isotope Technologies Garching GmbH (Garching, Germany). A total of 40 µL (stock solution of peptide at 1 µg/µL in 10% DMSO in water) was added to 500 µL of ascorbate buffer solution pH 5.0, prepared from the kit (composition not disclosed by vendor) and the resulting mixture was then added to 35 µL of [^177Lu]LuCl3 (2 GBq in aqueous 0.04 M HCl) and the reaction mixture was heated at 80 °C for 35 minutes followed by cooling for 10 minutes at room temperature. The product was then diluted with 0.5 mL of saline and the pH was adjusted to 7 using a 1 M aqueous solution of NaHCO3 prior to injection in mice. A reverse-phase HPLC system (Knauer GmbH, Germany) with a column (Eurospher II, C18, 250 × 4 mm) was used to determine the radiochemical purity of the radiotracer. The HPLC system was equipped with an Azura P.6.1L pump coupled with ultraviolet (Azura UVD 2.1L) and radiometric (γ-Raytest-Isotopenmessgeraete GmbH, Germany) detectors. The gradient elution system used mobile phase A (100% acetonitrile) and mobile phase B (deionized H2O containing 0.1% trifluoroacetic acid) and a flow rate of 1.0 mL/min. Starting with 0% A and 100% B, the gradient was increased to 100% A over 25 min and finally returned to initial gradient conditions within 5 min.
Tumor-bearing mice (n=4-5 per time point) were injected with approximately 1 MBq (22 pmol) of ^177Lu-DOTA-integrin αvβ6 knottin to the tail vein via a catheter. Mice (n=4-5 per time point) were sacrificed and dissected one, two, three and eight days post injection. Tumor, blood, stomach, pancreas, small intestine, colon, liver, spleen, kidney, heart, lung, muscle and femur samples were weighed and uptake of radioactivity was measured by a gamma counter.

[1] = NMRI-Foxn1^nu/Foxn1^nu (athymic nude), colon, Colon uptake, ~1 MBq i.v.
[2] = NMRI-Foxn1^nu/Foxn1^nu (athymic nude), liver, Liver uptake, ~1 MBq i.v.
[3] = NMRI-Foxn1^nu/Foxn1^nu (athymic nude), small intestine, Small intestine uptake, ~1 MBq i.v.
[4] = NMRI-Foxn1^nu/Foxn1^nu (athymic nude), spleen, Spleen uptake, ~1 MBq i.v.
[5] = NMRI-Foxn1^nu/Foxn1^nu (athymic nude), tail, Tail activity, ~1 MBq i.v.
[6] = NMRI-Foxn1^nu/Foxn1^nu (athymic nude), tumor, Tumor uptake, ~1 MBq (22 pmol) i.v.
[7] = NMRI-Foxn1^nu/Foxn1^nu (athymic nude), tumor/blood
[8] = NMRI-Foxn1^nu/Foxn1^nu (athymic nude), tumor/kidney
[9] = NMRI-Foxn1^nu/Foxn1^nu (athymic nude), tumor/liver
[10] = NMRI-Foxn1^nu/Foxn1^nu (athymic nude), tumor/muscle
[11] = NMRI-Foxn1^nu/Foxn1^nu (athymic nude), tumor/pancreas
[12] = athymic NMRI-Foxn1^nu/Foxn1^nu, blood, Blood activity, ~1 MBq i.v.

CC[C@H](C)[C@@H]1NC(=O)[C@@H](NC(=O)CNC(=O)CN2CCN(CC(=O)O)CCN(CC(=O)O)CCN(CC(=O)O)CC2)CSSC[C@@H]2NC(=O)[C@H](C)NC(=O)CNC(=O)[C@@H]3CCCN3C(=O)[C@@H]3CSSC[C@@H](C(=O)NCC(=O)O)NC(=O)[C@H](Cc4ccc(O)cc4)NC(=O)CNC(=O)[C@H](CC(N)=O)NC(=O)CNC(=O)[C@H](CCCNC(=N)N)NC(=O)[C@H](CSSC[C@H](NC(=O)[C@H](CCCNC(=N)N)NC(=O)[C@H](Cc4ccccc4)NC(=O)[C@H](CC(C)C)NC(=O)[C@H](CC(C)C)NC(=O)[C@H]([C@@H](C)O)NC(=O)CNC(=O)[C@H](CC(C)C)NC(=O)[C@H](CC(=O)O)NC(=O)[C@H]([C@@H](C)O)NC(=O)[C@H](CCCNC(=N)N)NC(=O)CNC(=O)[C@H](CC(N)=O)NC(=O)[C@H](CC(C)C)NC1=O)C(=O)N[C@@H](CCCNC(=N)N)C(=O)N[C@@H](CCCNC(=N)N)C(=O)N[C@@H](CC(=O)O)C(=O)N[C@@H](CO)C(=O)N[C@@H](CC(=O)O)C(=O)N3)NC(=O)[C@H]([C@@H](C)CC)NC2=O [^177Lu-DOTA-integrin αvβ6 knottin, metal not drawn]
tissue uptake at 24 h [1]: 1.37 %ID/g
tissue uptake at 48 h [1]: 0.56 %ID/g
tissue uptake at 72 h [1]: 0.43 %ID/g
tissue uptake at 192 h [1]: 0.04 %ID/g
tissue uptake at 24 h [2]: 0.24 %ID/g
tissue uptake at 48 h [2]: 0.18 %ID/g
tissue uptake at 72 h [2]: 0.2 %ID/g
tissue uptake at 192 h [2]: 0.08 %ID/g
tissue uptake at 24 h [3]: 0.76 %ID/g
tissue uptake at 48 h [3]: 0.35 %ID/g
tissue uptake at 72 h [3]: 0.27 %ID/g
tissue uptake at 192 h [3]: 0.02 %ID/g
tissue uptake at 24 h [4]: 0.06 %ID/g
tissue uptake at 48 h [4]: 0.07 %ID/g
tissue uptake at 72 h [4]: 0.18 %ID/g
tissue uptake at 72 h [5]: 0.16 %ID/g
tissue uptake at 192 h [5]: 0.08 %ID/g
tissue uptake at 48 h [6]: 2.45 %ID/g
tissue uptake at 72 h [6]: 3.46 %ID/g
tissue uptake at 192 h [6]: 1.16 %ID/g
Kp at 24 h [7]: 498
Kp at 48 h [7]: 851
Kp at 72 h [7]: 697
Kp at 192 h [7]: 2120
tissue to tissue ratio at 24 h [8]: 0.17
tissue to tissue ratio at 48 h [8]: 0.19
tissue to tissue ratio at 72 h [8]: 0.24
tissue to tissue ratio at 192 h [8]: 0.51
tissue to tissue ratio at 24 h [9]: 13
tissue to tissue ratio at 48 h [9]: 13.6
tissue to tissue ratio at 72 h [9]: 18.4
tissue to tissue ratio at 192 h [9]: 14.6
tissue to tissue ratio at 24 h [10]: 13.1
tissue to tissue ratio at 48 h [10]: 23.1
tissue to tissue ratio at 72 h [10]: 35.8
tissue to tissue ratio at 192 h [10]: 32.9
tissue to tissue ratio at 24 h [11]: 13.1
tissue to tissue ratio at 48 h [11]: 15.6
tissue to tissue ratio at 72 h [11]: 27
tissue to tissue ratio at 192 h [11]: 38.7
tissue uptake at 24 h [12]: 0.01 %ID/g
tissue uptake at 72 h [12]: 0.01 %ID/g
